In PMC9519967:

Biological target: His-tagged Grb3-3 SH2 domain and C-terminal SH3 domain (SH2Δ40CSH3) (human) (UniProt P62993)
Assay: MST

Kd	Substance
145 µM	Sos-C-Tail-6 truncated peptide (without GST) (from UniProt Q07889)
297 µM	Sos-C-Tail-8 truncated peptide (without GST) (from UniProt Q07889)
